Changes are numbered by the printed parent chain. “And” between values parts separate entries of the source, which are not always exact repeats. Identical values can stand only once.
B1: H3-3F4 Fab (Fab, V domains shown)
VH: QVTLRESGPALVKPTQTLTLTCTFSGFSLSTAGMSVGWIRQPPGKALEWLADIWWDDKKDYNPSLKSRLTISKDTSKNQVVLKVTNMDPADTATYYCARDMIFNWYFDVWGQGTTVTVSS
VL: DIQMTQSPSTLSASVGDRVTITCSASSSVGYMHWYQQKPGKAPKLLIYDTFKLASGVPSRFSGSGSGTEFTLTISSLQPDDFATYYCFQGSGYPFTFGGGTKVEIK
B2: M3H9 Fab (Fab, V domains shown)
VH: B1 VH
VL: B1 VL with F51Y, L53Q, A54T
B3: Y10H6 Fab (Fab, V domains shown)
VH: B1 VH
VL: B1 VL with F51R, K52Y, A54S
B4: DG (aka D95/G93) Fab (Fab, V domains shown)
VH: B1 VH with F103T, W105F
VL: B1 VL
B5: 6H8 Fab (Fab, V domains shown)
VH: B1 VH with F103T, W105F
VL: B1 VL with A54T
B6: L1-7E5 Fab (Fab, V domains shown)
VH: B1 VH with F103T, W105F
VL: B1 VL with S28R
B7: P12f4 Fab (Fab, V domains shown)
VH: B1 VH with A32P, D57G, D60H, S67D, W105F
VL: B1 VL with A25L, S28R, F51R, K52G, A54P

Molecular target: RSV F protein (immobilised antigen of Example 6.1) (respiratory syncytial virus)
Assay: BIAcore

Chain of RSV F protein (immobilised antigen of Example 6.1) (respiratory syncytial virus) (P03420 26-524): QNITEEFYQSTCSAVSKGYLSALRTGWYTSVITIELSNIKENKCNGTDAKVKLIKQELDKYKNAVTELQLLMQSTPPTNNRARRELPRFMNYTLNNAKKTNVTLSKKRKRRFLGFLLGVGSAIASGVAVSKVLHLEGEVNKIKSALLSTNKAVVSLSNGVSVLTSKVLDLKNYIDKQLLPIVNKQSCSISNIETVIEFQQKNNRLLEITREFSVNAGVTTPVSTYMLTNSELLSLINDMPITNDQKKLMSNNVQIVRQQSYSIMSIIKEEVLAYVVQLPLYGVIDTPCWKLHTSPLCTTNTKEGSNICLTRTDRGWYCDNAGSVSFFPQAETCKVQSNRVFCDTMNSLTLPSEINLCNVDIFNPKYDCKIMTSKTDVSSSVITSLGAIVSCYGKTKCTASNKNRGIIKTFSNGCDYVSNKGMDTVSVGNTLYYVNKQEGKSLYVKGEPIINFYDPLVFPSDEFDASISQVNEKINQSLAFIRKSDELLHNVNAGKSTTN

B1 was tested. Which koff did it give?
The koff was 0.000445 s⁻¹ and 0.000402 s⁻¹.

What does the source list for B2?
koff: 0.000338 s⁻¹; kon: 605000 M⁻¹ s⁻¹

How did the koff turn out when B3 was run?
The koff was 0.000462 s⁻¹.

What about the kon of the same binder?
Its kon is 757000 M⁻¹ s⁻¹.

For B4, which koff is on record?
The koff was 0.000167 s⁻¹ and 0.000444 s⁻¹.

How did the koff turn out when B5 was run?
Its koff is 0.000178 s⁻¹ and 0.000473 s⁻¹.

And the kon?
The kon was 314000 M⁻¹ s⁻¹ and 444000 M⁻¹ s⁻¹.

For B6, which koff is on record?
Its koff is 0.000192 s⁻¹ and 0.000331 s⁻¹ and 0.000229 s⁻¹.

Which koff does the source give for B7 here?
Its koff is 0.000299 s⁻¹.

What about the kon of the same binder?
Its kon is 527000 M⁻¹ s⁻¹.
